# According to paper PMC5506079, “Neodymium-140 DOTA-LM3: Evaluation of an In Vivo Generator for PET with a Non-Internalizing Vector” (Frontiers in Medicine, 2017):
# Assays:
# [1] = tested on: NCI-H727 tumor bearing mice; assay: Small animal PET/CT tissue quantification, pre-mortem (16 h) and post-mortem; type: in vivo, female NMRI nude mice; conditions: for Tumor post-mortem PET signal: mean ± spread over tumors; for Tumor partial volume corrected PET signal (PVC-PET): post-mortem PET divided by S(V); for Kidney PM PET tissue signal / L. tumor PM PET tissue signal / Liver PM PET tissue signal / Lung PM PET tissue signal / Muscle PM PET tissue signal / Pancreas PM PET tissue signal / R. tumor PM PET tissue signal: post mortem scan after 16 h, 3.3–4.3 MBq i.v.
# Protocol: (§1) NCI-H727 lung carcinoid cancer cells (ATCC CRL-5815, LGC Standards) were cultured in RPMI-1640 media supplemented with 10% fetal bovine serum and 1% penicillin-streptomycin (Invitrogen) at 37° C and 5% CO2. Cells in their exponential growth phase and at 80–90% confluence were harvested by trypsinization and resuspended in 1:1 media and matrigel (BD Biosciences) at 5 × 10^7 cells/mL. Subcutaneous tumors were established in female NMRI nude mice (Taconic, Denmark) by inoculation of 5 × 10^6 cells in 100 µL on each flank above the hind limbs in the subcutaneous space. All animal experiments were performed under a protocol approved by the National Animal Experiments Inspectorate of Denmark.
# Longitudinal small animal PET/CT imaging (Inveon Multimodality PET/CT scanner, Siemens) was performed with NCI-H727 tumor bearing mice injected intravenously with 3.3–4.3 MBq ^140Nd-DOTA-LM3 (n = 8) or 2.7–3.1 MBq ^140Nd-chloride (n = 3) in 150 µL. Mice were anesthetized with sevoflurane (Abbott Laboratories) during injection and PET/CT imaging. PET data was acquired for 600 s in list mode at 1, 3, and 16 h after injection. The mice were sacrificed after the 16 h time-point and a PET acquisition was performed 2 h post-mortem. Images were reconstructed using a 3D maximum a posteriori algorithm with CT based attenuation correction. CT images were acquired with the following settings: 300 projections, 65 kV, 500 µA, and 400 ms exposure, and reconstructed with an isotropic voxel size of 105 µm. Image analysis was performed using the Inveon Software (Siemens). Region of interests (ROIs) were drawn manually over the tumor regions and other organs based on the CT images and the uptake of ^140Nd-DOTA-LM3 or ^140Nd-chloride quantified as % injected dose per gram tissue (%ID/g).
# Throughout the text we have used a unit, %IS/g, to denote the “percent of injected annihilation signal per gram tissue”. This is in contrast to the common unit, %ID/g (percent of injected dose per gram), which is typically used to report relative radiotracer concentrations. We made the decision to change units for two reasons: first because the EC-delayed positron is not guaranteed to be emitted at the same location as the initial EC decay; and second, because the abnormally high energy of positrons emitted in the decay of ^140Pr leads to large partial volume effects which alter the relationship between the decay distribution and the annihilation distribution.
# Using the partial volume correction factor S(V), as a function of ROI volume, the PET quantifications from the manuscript can be rescaled. The results are shown in table S1 compared to the ex vivo biodistribution data. […] A more complete approach to the partial volume correction may lead to better agreement for the PET and well-counter data.
# [2] = tested on: NCI-H727 tumor bearing mice; assay: Conventional ex vivo biodistribution (gamma counter); type: in vivo, female NMRI nude mice; conditions: for Tumor ex-vivo well counter: 16 h after injection
# Protocol: as §1
# Conventional ex vivo biodistribution was performed after the post-mortem scan. Tumors and organs were resected, weighted and the radioactivity was counted in a gamma counter (Wizard^2, PerkinElmer).
# [3] = HPLC verification of de-labeling of ^140Pr from DOTA-LM3; type: physicochemical; conditions: reverse-phase C-18 radio-HPLC trace vs LSC of fractions
# Protocol: Samples of ^140Nd-DOTA-LM3 were injected onto a reverse-phase C-18 (Luna 3uC18(2)(n) 100 A 100 × 2 mm 3 μm, Phenomenex) column at a flow rate of 0.5 mL/min starting from 0% acetonitrile in water, and reaching 100% over a 15 min gradient. Elution was monitored with a radio detector. The entire effluent was collected in 1 min intervals (500 µL each) and quantified 4 days after collection by liquid scintillation counting on a HIDEX 300 SL spectrometer.
substance,measurement,setting,value
"1,4,7,10- tetraazacyclododecane, 1,4,7- tri acetic acid, 10- acetamide N - p-Cl-Phecyclo(d-Cys-Tyr-d-4-amino-Phe(carbamoyl)-Lys-Thr-Cys)d-Tyr-NH2 (disulfide) [^140Nd-DOTA-LM3, ^140Nd reacted with the somatostatin analogue DOTA-LM3, a non-internalizing vector; the printed name is that of unlabeled DOTA-LM3]",Tumor post-mortem PET signal,[1]; 2.5MBq/nmol,0.19 ±0.07 %IS/g
same,Tumor partial volume corrected PET signal (PVC-PET),[1]; 2.5MBq/nmol,1.5 ±0.4 %ID/g
same,Tumor post-mortem PET signal,[1]; 5MBq/nmol,0.40 ±0.15 %IS/g
same,Tumor partial volume corrected PET signal (PVC-PET),[1]; 5MBq/nmol,3.0 ±1.0 %ID/g
same,Fraction of in situ produced ^140Pr washed out of the pancreas before decay,"[1]; higher specific activity (5 MBq/nmol), pre- vs post-mortem PET at 16 h, n = 4, mean ± SD",56 ± 7%
same,Kidney PM PET tissue signal,"[1]; subject 1, 5 MBq/nmol",1.41 %IS/g
same,L. tumor PM PET tissue signal,"[1]; subject 1, 5 MBq/nmol",0.38 %IS/g
same,Liver PM PET tissue signal,"[1]; subject 1, 5 MBq/nmol",0.21 %IS/g
same,Lung PM PET tissue signal,"[1]; subject 1, 5 MBq/nmol",0.06 %IS/g
same,Muscle PM PET tissue signal,"[1]; subject 1, 5 MBq/nmol",0.08 %IS/g
same,Pancreas PM PET tissue signal,"[1]; subject 1, 5 MBq/nmol",1.79 %IS/g
same,R. tumor PM PET tissue signal,"[1]; subject 1, 5 MBq/nmol",0.29 %IS/g
same,Kidney PM PET tissue signal,"[1]; subject 2, 5 MBq/nmol",1.26 %IS/g
same,L. tumor PM PET tissue signal,"[1]; subject 2, 5 MBq/nmol",0.35 %IS/g
same,Liver PM PET tissue signal,"[1]; subject 2, 5 MBq/nmol",0.17 %IS/g
same,Lung PM PET tissue signal,"[1]; subject 2, 5 MBq/nmol",0.08 %IS/g
same,Muscle PM PET tissue signal,"[1]; subject 2, 5 MBq/nmol",0.07 %IS/g
same,Pancreas PM PET tissue signal,"[1]; subject 2, 5 MBq/nmol",2.12 %IS/g
same,R. tumor PM PET tissue signal,"[1]; subject 2, 5 MBq/nmol",0.41 %IS/g
same,Kidney PM PET tissue signal,"[1]; subject 3, 5 MBq/nmol",1.76 %IS/g
same,L. tumor PM PET tissue signal,"[1]; subject 3, 5 MBq/nmol",0.68 %IS/g
same,Liver PM PET tissue signal,"[1]; subject 3, 5 MBq/nmol",0.25 %IS/g
same,Lung PM PET tissue signal,"[1]; subject 3, 5 MBq/nmol",0.08 %IS/g
same,Muscle PM PET tissue signal,"[1]; subject 3, 5 MBq/nmol",0.06 %IS/g
same,Pancreas PM PET tissue signal,"[1]; subject 3, 5 MBq/nmol",2.56 %IS/g
same,R. tumor PM PET tissue signal,"[1]; subject 3, 5 MBq/nmol",0.44 %IS/g
same,Kidney PM PET tissue signal,"[1]; subject 4, 5 MBq/nmol",1.15 %IS/g
same,L. tumor PM PET tissue signal,"[1]; subject 4, 5 MBq/nmol",0.24 %IS/g
same,Liver PM PET tissue signal,"[1]; subject 4, 5 MBq/nmol",0.12 %IS/g
same,Lung PM PET tissue signal,"[1]; subject 4, 5 MBq/nmol",0.04 %IS/g
same,Muscle PM PET tissue signal,"[1]; subject 4, 5 MBq/nmol",0.06 %IS/g
same,Pancreas PM PET tissue signal,"[1]; subject 4, 5 MBq/nmol",2.26 %IS/g
same,R. tumor PM PET tissue signal,"[1]; subject 4, 5 MBq/nmol",0.18 %IS/g
same,Kidney PM PET tissue signal,"[1]; subject 5, 2.5 MBq/nmol",1.12 %IS/g
same,L. tumor PM PET tissue signal,"[1]; subject 5, 2.5 MBq/nmol",0.29 %IS/g
same,Liver PM PET tissue signal,"[1]; subject 5, 2.5 MBq/nmol",0.20 %IS/g
same,Muscle PM PET tissue signal,"[1]; subject 5, 2.5 MBq/nmol",0.04 %IS/g
same,Pancreas PM PET tissue signal,"[1]; subject 5, 2.5 MBq/nmol",0.76 %IS/g
same,R. tumor PM PET tissue signal,"[1]; subject 5, 2.5 MBq/nmol",0.28 %IS/g
same,Kidney PM PET tissue signal,"[1]; subject 6, 2.5 MBq/nmol",1.35 %IS/g
same,L. tumor PM PET tissue signal,"[1]; subject 6, 2.5 MBq/nmol",0.17 %IS/g
same,Liver PM PET tissue signal,"[1]; subject 6, 2.5 MBq/nmol",0.23 %IS/g
same,Lung PM PET tissue signal,"[1]; subject 6, 2.5 MBq/nmol",0.08 %IS/g
same,Muscle PM PET tissue signal,"[1]; subject 6, 2.5 MBq/nmol",0.03 %IS/g
same,Pancreas PM PET tissue signal,"[1]; subject 6, 2.5 MBq/nmol",1.71 %IS/g
same,R. tumor PM PET tissue signal,"[1]; subject 6, 2.5 MBq/nmol",0.07 %IS/g
same,Kidney PM PET tissue signal,"[1]; subject 7, 2.5 MBq/nmol",0.97 %IS/g
same,L. tumor PM PET tissue signal,"[1]; subject 7, 2.5 MBq/nmol",0.18 %IS/g
same,Liver PM PET tissue signal,"[1]; subject 7, 2.5 MBq/nmol",0.17 %IS/g
same,Lung PM PET tissue signal,"[1]; subject 7, 2.5 MBq/nmol",0.08 %IS/g
same,Muscle PM PET tissue signal,"[1]; subject 7, 2.5 MBq/nmol",0.03 %IS/g
same,Pancreas PM PET tissue signal,"[1]; subject 7, 2.5 MBq/nmol",0.88 %IS/g
same,R. tumor PM PET tissue signal,"[1]; subject 7, 2.5 MBq/nmol",0.19 %IS/g
same,Kidney PM PET tissue signal,"[1]; subject 8, 2.5 MBq/nmol",1.18 %IS/g
same,L. tumor PM PET tissue signal,"[1]; subject 8, 2.5 MBq/nmol",0.18 %IS/g
same,Liver PM PET tissue signal,"[1]; subject 8, 2.5 MBq/nmol",0.15 %IS/g
same,Lung PM PET tissue signal,"[1]; subject 8, 2.5 MBq/nmol",0.04 %IS/g
same,Muscle PM PET tissue signal,"[1]; subject 8, 2.5 MBq/nmol",0.03 %IS/g
same,Pancreas PM PET tissue signal,"[1]; subject 8, 2.5 MBq/nmol",0.82 %IS/g
same,R. tumor PM PET tissue signal,"[1]; subject 8, 2.5 MBq/nmol",0.18 %IS/g
same,Tumor ex-vivo well counter,[2]; 2.5MBq/nmol,3.7 ±1.3 %ID/g
same,Tumor ex-vivo well counter,[2]; 5MBq/nmol,6.3 ±2.3 %ID/g
same,"Liver tissue accumulation, ex vivo biodistribution","[2]; 16 h after i.v. injection, gamma counter",3 %ID/g
same,"Pancreas tissue accumulation, ex vivo biodistribution","[2]; 16 h after i.v. injection, high specific activity (5.0 MBq/nmol, 0.5 nmol injected), n = 4, gamma counter",13 % ID/g
same,Efficiency of release of ^140Pr from DOTA-LM3 after ^140Nd decay,[3],> 95%
